# Results: publication PMC2116055
# What was measured:
# Assay in all cases: non-reducing SDS-PAGE of immunoprecipitates
# [1] = target: recombinant rat fibronectin, V form (with the V segment only), expressed in WEHI231 cells (rat)
# [2] = target: recombinant rat fibronectin, B form (with EIIIB only), expressed in WEHI231 cells (rat)
# [3] = target: recombinant rat fibronectin, O form (no EIIIB, EIIIA or V segment), expressed in WEHI231 cells (rat)
# [4] = target: recombinant rat fibronectin, A form (with EIIIA only), expressed in WEHI231 cells (rat)
substance,measurement,setting,value
"recombinant rat fibronectin, V form (with the V segment only), expressed in WEHI231 cells (natural protein)",percent in the dimeric form,[1],90%
same,stoichiometry N,[1],2
"recombinant rat fibronectin, B form (with EIIIB only), expressed in WEHI231 cells (natural protein)",stoichiometry N,[2],2
"recombinant rat fibronectin, O form (no EIIIB, EIIIA or V segment), expressed in WEHI231 cells (natural protein)",percent in the dimeric form,[3],50%
same,stoichiometry N,[3],2
"recombinant rat fibronectin, A form (with EIIIA only), expressed in WEHI231 cells (natural protein)",stoichiometry N,[4],2
